US20240272171A1 (PHENOMEX, published 2024)
No end group written: not given here. *: point of attachment. FITC = O=C1OC2(c3ccc(O)cc3Oc3cc(O)ccc32)c2ccc(NC(=S)*)cc21

Legend:
[1] = target: T1, HLA-A*02:01 MHC Class I complex (recombinant, biotinylated) (human, biotinylated (lysine of a C-terminal BirA recognition sequence)); test: pMHC on streptavidin beads held in T cell culture media at 37 C for 0-48 h; APC W6/32 staining, flow cytometry MFI fitted to an exponential decay
T1 construct: Bought as a peptide-loaded complex (Biolegend or other maker); also called pHLA (when loaded with peptide)

[2] = target: T1, HLA-A*02:01 MHC Class I complex …; test: loading into HLA-A*02:01 and catalysed peptide exchange test

B1: SLLPIMWQLY (SEQ ID NO: 6), TCL1-derived peptide (peptide)
peptide: SLLPIMWQLY
notes: also called Non-Immunogenic TCL1-derived peptide
half-life of the complex [1]: ~0.5 h

B2: SLYSYFQKV (SEQ ID NO: 5), SLC45A2-derived peptide (peptide)
peptide: SLYSYFQKV
notes: also called Immunogenic SLC45A2-derived peptide; SLC45A2 antigen peptide
half-life of the complex [1]: ~17 h

GAATK(FITC)MAAV [EP5 GAATKMAAV (SEQ ID NO: 13), FITC-labelled in-place peptide GAAT{Lys(FITC)}MAAV]
binding result [2]: binds
